Measurements as given in patent publication US20240034792A1 (HARBOUR BIOMED SHANGHAI, published 2024).

Legend:
[1] = target: T1, Human PD-1 expressed on CHO-K1 cells (CHO-K1/hPD-1) (human, UniProt Q15116 25-288); assay: FACS, CHO-K1-hPD-1 cells
T1 construct: whole, on cells; also called CHO-K1 cells overexpressing human PD-1
Procedure: In order to investigate the binding activity of the CD73×PD-1 bispecific antibody to human CD73 and PD-1, the binding assay at the cellular level was performed using a CHO-K1 cell strain overexpressing human CD73 or PD-1 (CHO-K1-hCD73 or CHO-K1-hPD-1). Briefly, the CHO-K1-hCD73 and CHO-K1-hPD-1 cells were digested and resuspended in an F-12K complete medium, and the cell density was adjusted to 1×10⁶ cells/mL. The cells were seeded in a 96-well V-bottom plate (Corning, #3894) at 100 μL/well, followed by the addition at 100 μL/well and centrifugation at 500 g at 4° C. for 5 min, and then the supernatant was discarded. Antibodies were 3-fold diluted to a maximum final concentration of 50 nM, and a total of 8 concentrations were set. 100 μL of the diluted antibodies was added to each well, and the cells were incubated at 4° C. for 1 h away from light. Thereafter, the cells in each well were rinsed twice with 100 μL of pre-cooled PBS, and centrifuged at 500 g at 4° C. for 5 min, and then the supernatant was discarded. Then 100 μL of a fluorescent secondary antibody (goat anti-human IgG (H+L) secondary antibody, Alexa Fluor® 488 conjugate, Invitrogen, Cat #A11013, 1:1000) was added to each well. […] Finally, the cells in each well were resuspended in 200 μL of pre-cooled PBS, and the fluorescence signal values were read using a BD FACS CANTOII.

[2] = target: T2, Cynomolgus monkey PD-1-His protein (AcroBiosystems, # PD1-05223) (cynomolgus monkey, UniProt B0LAJ3 25-170); assay: ELISA, plate-coated cynomolgus monkey PD-1-His
T2 construct: Bought reagent, coated on the ELISA plate; also called cynomolgus monkey PD-1 protein
T2 sequence (B0LAJ3 entry or part of it limits assumed): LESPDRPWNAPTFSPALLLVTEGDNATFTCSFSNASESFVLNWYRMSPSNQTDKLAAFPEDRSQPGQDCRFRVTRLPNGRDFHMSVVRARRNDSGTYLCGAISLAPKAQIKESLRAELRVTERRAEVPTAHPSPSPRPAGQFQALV
Procedure: Cynomolgus monkey PD-1-His protein (AcroBiosystems, # PD1-05223) was diluted to 2 μg/mL with PBS, added to a 96-well plate (Corning, #9018) at 100 μL/well, and incubated at 4° C. overnight. After the liquid was discarded, the plate was washed 3 times with PBST, blocked by adding 250 μL of 2% BSA, and incubated at room temperature for 1 h. The blocking buffer was discarded, and the plate was washed 3 times with PBST buffer (pH 7.4, containing 0.05% Tween-20). The test antigen-binding protein was diluted to 5 μg/mL, and added at 100 μL/well. The plate was incubated at 37° C. for 1 h. After the plate was washed 3 times with PBST buffer (pH 7.4, containing 0.05% Tween-20), a 4000-fold diluted goat anti-human HRP secondary antibody (Invitrogen, #A18805) was added. The plate was incubated at 37° C. for 1 h. After the plate was washed, TMB (Biopanda, # TMB-S-003) was added at 100 μL/well. The plate was left away from light at room temperature for 5 min. The reactions were terminated by adding 50 μL of stop buffer (BBI life sciences, #E661006-0200) to each well, and the absorbance values at 450 nm (OD450) were measured using a microplate reader (PerkinElemer, #Enspire).

[3] = target: T3, Human PD-1 protein with histidine and avi tags (ACRO Biosystems, PD1-H82E4) (human, UniProt Q15116 25-167); assay: BLI (Octet Red96e), PD-1 captured on SA sensor, 1:1 local fit
T3 construct: Captured on streptavidin (SA) sensors in the BLI assay; not shown: histidine and avi tags
T3 sequence (Q15116 25-167 limits assumed): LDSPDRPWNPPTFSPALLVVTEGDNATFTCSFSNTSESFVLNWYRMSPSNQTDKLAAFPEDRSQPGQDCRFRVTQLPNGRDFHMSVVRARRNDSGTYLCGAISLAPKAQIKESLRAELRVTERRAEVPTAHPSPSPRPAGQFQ

T1 sequence (Q15116 25-288): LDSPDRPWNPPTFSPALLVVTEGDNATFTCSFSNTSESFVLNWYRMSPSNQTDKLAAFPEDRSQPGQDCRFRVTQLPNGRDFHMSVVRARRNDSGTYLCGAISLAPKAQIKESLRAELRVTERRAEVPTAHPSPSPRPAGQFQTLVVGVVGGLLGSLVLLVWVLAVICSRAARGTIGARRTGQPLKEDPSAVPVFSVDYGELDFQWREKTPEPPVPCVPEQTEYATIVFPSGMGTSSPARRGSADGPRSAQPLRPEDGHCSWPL

B1: PR002481 (antibody, human IgG1, V domains shown)
VH: EVQLVETGGGLIQPGGSLRLSCAASGFNVSSHYMSWVRQAPGKGREWVSIIDGGGSTYYADSVKGRFTISRDNSKNRLYLQMNSLRAEDTAMYYCARATAVAEKNGYNYPFNYWGQGTLVTVSS
notes: Heavy-chain-only antibody (HCAb), human IgG1 Fc; two heavy chains, no light chain; also called R4004P556D1; anti-PD1 R4004P556D1 HCAb hG1
EC50 [1]: 1.24 nM | EC50 [2]: 0.031 nM | OD Maximum [2]: 3.06 | Kd [3]: 77 nM | koff [3]: 0.000768 s⁻¹ | kon [3]: 9970 M⁻¹ s⁻¹
